As usually defined, the Kd is the free concentration of one partner at which half of the binding sites on the other are occupied at equilibrium, for simple one-to-one binding. A low value points to tighter binding.

Data on 1 molecule can be found in article PMC6424575 (Biochemistry, 2018).

In one experiment the target is DEBS module 3+TE (Saccharopolyspora erythraea). Briefly: ELISA. In general terms: In an ELISA, binding on a coated surface is turned into a signal by an enzyme label.
Experiment [1] has as its target DEBS3 (bimodular protein of the 6-deoxyerythronolide B synthase) (Saccharopolyspora erythraea, UniProt Q03133). Nature of the experiment: SEC-SAXS. For orientation: SEC sorts molecules by how far they enter the pores of the column.

Sequence of DEBS3 (bimodular protein of the 6-deoxyerythronolide B synthase) (Q03133 whole entry): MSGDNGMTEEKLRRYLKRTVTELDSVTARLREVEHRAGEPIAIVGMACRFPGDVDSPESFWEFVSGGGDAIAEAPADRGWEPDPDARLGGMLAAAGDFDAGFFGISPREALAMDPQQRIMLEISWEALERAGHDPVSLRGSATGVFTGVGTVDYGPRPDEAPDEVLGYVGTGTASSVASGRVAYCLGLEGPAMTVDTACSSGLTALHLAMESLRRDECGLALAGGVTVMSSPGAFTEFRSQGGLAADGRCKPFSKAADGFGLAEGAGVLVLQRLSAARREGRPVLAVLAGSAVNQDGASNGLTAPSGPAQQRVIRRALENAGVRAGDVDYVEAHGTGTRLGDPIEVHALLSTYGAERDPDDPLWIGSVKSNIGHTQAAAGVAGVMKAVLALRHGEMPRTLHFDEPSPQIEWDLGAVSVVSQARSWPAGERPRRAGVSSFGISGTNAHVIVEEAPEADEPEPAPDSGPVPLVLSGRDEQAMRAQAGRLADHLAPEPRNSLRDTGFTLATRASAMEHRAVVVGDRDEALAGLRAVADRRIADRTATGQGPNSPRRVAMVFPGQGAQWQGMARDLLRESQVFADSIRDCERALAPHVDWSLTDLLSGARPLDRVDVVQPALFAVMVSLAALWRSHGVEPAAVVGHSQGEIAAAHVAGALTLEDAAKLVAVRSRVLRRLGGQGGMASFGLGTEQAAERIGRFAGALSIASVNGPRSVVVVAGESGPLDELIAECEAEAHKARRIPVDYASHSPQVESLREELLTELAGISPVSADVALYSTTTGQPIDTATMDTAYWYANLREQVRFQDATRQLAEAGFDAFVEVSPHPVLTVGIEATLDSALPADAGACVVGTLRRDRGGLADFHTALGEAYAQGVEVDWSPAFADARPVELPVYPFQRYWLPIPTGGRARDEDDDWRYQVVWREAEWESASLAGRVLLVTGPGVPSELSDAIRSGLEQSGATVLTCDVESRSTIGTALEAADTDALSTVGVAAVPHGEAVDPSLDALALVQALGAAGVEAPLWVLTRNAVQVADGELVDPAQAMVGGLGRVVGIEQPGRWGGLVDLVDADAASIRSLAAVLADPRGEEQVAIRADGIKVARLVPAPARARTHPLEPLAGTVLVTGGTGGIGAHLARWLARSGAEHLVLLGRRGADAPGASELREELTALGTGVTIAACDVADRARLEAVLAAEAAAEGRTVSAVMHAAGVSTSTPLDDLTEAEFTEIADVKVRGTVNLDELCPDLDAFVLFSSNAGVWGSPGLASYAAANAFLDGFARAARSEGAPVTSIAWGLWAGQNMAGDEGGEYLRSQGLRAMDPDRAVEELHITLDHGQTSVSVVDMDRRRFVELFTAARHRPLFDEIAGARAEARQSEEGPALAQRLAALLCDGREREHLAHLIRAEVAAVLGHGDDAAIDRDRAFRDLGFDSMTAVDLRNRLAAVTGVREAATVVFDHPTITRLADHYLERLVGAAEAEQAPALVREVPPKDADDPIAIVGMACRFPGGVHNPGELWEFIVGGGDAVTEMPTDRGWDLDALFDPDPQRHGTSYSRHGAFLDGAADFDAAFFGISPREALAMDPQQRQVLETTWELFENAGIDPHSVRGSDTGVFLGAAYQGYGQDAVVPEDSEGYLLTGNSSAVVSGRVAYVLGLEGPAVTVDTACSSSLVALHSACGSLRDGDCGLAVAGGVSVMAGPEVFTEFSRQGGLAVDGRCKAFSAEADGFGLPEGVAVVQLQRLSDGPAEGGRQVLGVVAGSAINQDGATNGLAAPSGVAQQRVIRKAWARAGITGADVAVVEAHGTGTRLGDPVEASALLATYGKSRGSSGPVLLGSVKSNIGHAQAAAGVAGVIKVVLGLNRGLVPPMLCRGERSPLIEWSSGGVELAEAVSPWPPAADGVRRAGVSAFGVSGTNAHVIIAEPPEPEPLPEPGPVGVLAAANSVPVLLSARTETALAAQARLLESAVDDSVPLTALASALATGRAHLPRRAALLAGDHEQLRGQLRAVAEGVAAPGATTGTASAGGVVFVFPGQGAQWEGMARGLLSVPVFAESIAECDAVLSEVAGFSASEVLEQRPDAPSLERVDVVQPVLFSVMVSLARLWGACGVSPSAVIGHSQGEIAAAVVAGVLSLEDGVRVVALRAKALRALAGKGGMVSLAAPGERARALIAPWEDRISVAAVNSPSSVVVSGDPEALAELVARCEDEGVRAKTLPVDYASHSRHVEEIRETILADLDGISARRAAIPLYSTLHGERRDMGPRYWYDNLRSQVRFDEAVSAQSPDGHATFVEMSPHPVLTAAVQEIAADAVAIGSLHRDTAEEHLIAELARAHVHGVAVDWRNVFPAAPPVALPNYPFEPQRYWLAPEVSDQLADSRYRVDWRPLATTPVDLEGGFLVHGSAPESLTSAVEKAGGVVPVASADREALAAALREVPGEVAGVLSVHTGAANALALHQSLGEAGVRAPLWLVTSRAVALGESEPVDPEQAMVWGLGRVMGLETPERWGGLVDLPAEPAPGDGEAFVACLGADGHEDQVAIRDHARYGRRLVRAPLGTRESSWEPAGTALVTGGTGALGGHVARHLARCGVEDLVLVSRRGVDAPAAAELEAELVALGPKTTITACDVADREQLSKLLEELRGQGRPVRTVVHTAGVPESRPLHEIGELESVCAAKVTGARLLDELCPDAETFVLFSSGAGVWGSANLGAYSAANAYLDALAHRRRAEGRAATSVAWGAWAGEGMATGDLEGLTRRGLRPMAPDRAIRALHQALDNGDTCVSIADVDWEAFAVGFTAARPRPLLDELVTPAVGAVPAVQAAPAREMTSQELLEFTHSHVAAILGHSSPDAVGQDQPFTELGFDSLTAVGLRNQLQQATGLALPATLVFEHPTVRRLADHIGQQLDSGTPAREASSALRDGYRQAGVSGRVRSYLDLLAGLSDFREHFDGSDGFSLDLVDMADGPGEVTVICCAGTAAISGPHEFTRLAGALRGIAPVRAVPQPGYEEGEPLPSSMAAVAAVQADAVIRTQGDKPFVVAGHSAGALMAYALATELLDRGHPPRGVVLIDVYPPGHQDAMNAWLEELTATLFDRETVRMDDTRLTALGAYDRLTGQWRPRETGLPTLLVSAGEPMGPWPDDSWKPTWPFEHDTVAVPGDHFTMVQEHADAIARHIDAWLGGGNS

B1: Fab 3A6 (Fab, V domains shown)
VH: QVQLQQWGAGLLKPSETLSLTCAVYGGSFSGYYWSWIRQPPGKGLEWIGEINHSGSTNYNPSLKSRVTISVDTSKNQFSLKLSSVTAADTAVYYCARGLGYSGSYYAPNWGQGTLVTVSS
VL: not shown
B1: in the experiment with DEBS module 3+TE, the affinity, expressed as Kd, was 42 ± 12 nM. For the same molecule, the binding result in experiment [1] is given as “binds”.
